We go through 21 molecules from US20140135474A1 (PROTELICA, published 2014).

Assay [1] has as its target T1, HMGB1 (UniProt P09429 1-215, limits assumed).
T1 construct: also called biotinylated HMGB1
T1 sequence (looked up): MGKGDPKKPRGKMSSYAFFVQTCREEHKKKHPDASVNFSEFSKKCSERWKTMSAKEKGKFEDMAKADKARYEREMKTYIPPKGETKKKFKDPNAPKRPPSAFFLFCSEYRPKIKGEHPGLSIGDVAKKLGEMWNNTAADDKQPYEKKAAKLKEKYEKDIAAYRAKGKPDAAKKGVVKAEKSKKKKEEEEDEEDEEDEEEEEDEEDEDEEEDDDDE
The assay is described as follows: Octet BLI. On the technique in general: Biolayer interferometry detects binding as a change in optical thickness at a sensor tip.

Assay [2] deals with T2, TNF-α (UniProt P01375 77-233, biotinylated).
T2 construct: also called TNF-alpha; biotintylated TNF-α soluble protein
T2 sequence (P01375 77-233 limits assumed): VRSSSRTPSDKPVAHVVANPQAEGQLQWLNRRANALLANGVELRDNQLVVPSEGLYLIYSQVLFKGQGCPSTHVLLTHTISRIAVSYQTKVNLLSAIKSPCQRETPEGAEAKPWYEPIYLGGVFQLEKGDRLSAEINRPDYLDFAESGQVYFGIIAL
Kind of assay: ELISA (OD450); wells with HMGB1, TNF or blank. Background: An ELISA detects its analyte on a solid surface through an enzyme-linked reagent.

For assay [3], the target named is T1, HMGB1. The assay is described as follows: competition ELISA: biotinylated HMGB1 pre-incubated with R2F8, then bound to immobilized RAGE (blocked ligand-receptor pair HMGB1/RAGE), detected with streptavidin-HRP and TMB.
Assay [4] addresses T2, TNF-α. The assay is described as follows: phage ELISA; wells with TNF, control or VEGF. How it is done:
(§1) After the third and fourth rounds of selection, a total of 373 clones were analyzed for TNF-α binding using phage ELISA. Briefly, phage from individual clones was produced by co-infection with M13K07 helper phage in 1 ml cultures in 96-deep well blocks. Phage-containing culture supernatants were then added to microtiter plates coated with the target protein. Following washes with PBS-0.1% Tween-20, bound phage was detected with a mouse anti-M13 antibody horseradish peroxidase conjugate (GE Biosciences) and TMB substrate (Pierce). Positive variants were then screened for binding specificity against VEG-F and nuetravidin plate only.

Assay [5] has as its target T3, VEGF (UniProt P15692-9 27-147, limits assumed).
T3 construct: Only the selection names the 121 isoform; also called VEGF(121)
T3 sequence (looked up): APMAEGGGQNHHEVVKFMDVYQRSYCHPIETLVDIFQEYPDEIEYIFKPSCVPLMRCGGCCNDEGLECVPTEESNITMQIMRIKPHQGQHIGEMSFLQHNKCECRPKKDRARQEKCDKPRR
The assay is described as follows: phage ELISA; wells with TNF, control or VEGF. How it is done:
as §1

Assay [6] addresses T3, VEGF. The assay is described as follows: ELISA with purified soluble 14FN3 variant, OD450, one concentration (not given).
Assay [7] has as its target T2, TNF-α. Kind of assay: phage ELISA (OD450); wells with VEGF, TNF alfa or 2%MPBS only.
Assay [8] deals with T3, VEGF. Kind of assay: Octet BLI, soluble protein.
In assay [9] the target is T3, VEGF. The assay is described as follows: phage ELISA.
For assay [10], the target named is T2, TNF-α. Kind of assay: phage display selection and ELISA.
The target of assay [11] is T2, TNF-α. Kind of assay: Octet BLI, biotinylated TNF-α on streptavidin tips; lower end of the range. Here is the method:
(§2) The target protein was biotintylated TNF-α soluble protein (R&D Systems) and is at a concentration of 0.25 ug/ml for loading onto the streptavidin sensor tips. […] The Octet was run using the manufacturers protocol for Basic Kinetic Assay.

The target of assay [12] is T2, TNF-α. The assay is described as follows: Octet BLI, biotinylated TNF-α on streptavidin tips; upper end of the range. Here is the method:
as §2

For assay [13], the target named is T2, TNF-α. Kind of assay: Octet BLI, biotinylated TNF-α on streptavidin tips. Here is the method: as §2

A value given as a limit tells only on which side of the number the result lay.

B1: P2F3 anti-HMGB1 (designed binder)
chain: NVSPPRRARVTDATETTITIRWGVPHSFQVDAVPANGQTPIQRTIKRGVRSYTITGLQPGTDYKIYLYTLNDNARSSPVVIDAST
notes: 14FN3 variant; on phage in phage ELISA, soluble 6xHis-tagged in Octet
On to B1, for which the koff (as a rule, a measure of how fast the partners let go of each other) in assay [1] was 0.000271 s⁻¹.

B2: P1E8 anti-HMGB1 (designed binder)
chain: NVSPPRRARVTDATETTITISWRAAESAIARFQVDAVPANGQTPIQRTIKRTKHTYTITGLQPGTDYKIYLYTLNDNARSSPVVIDAST
notes: as for B1
Consider B2, for which, in assay [1], the Kd (commonly the concentration at which binding is half-saturated) is 192 nM; the koff is 0.000325 s⁻¹; the kon (as a rule, the second-order rate constant of association) stood at 1690 M⁻¹ s⁻¹.

B3: R2D4 anti-HMGB1 (designed binder)
chain: NVSPPRRARVTDATETTITISWGVAESEVTRFQVDAVPANGQTPIQRTIKRSKHAYTITGLQPGTDYKIYLYTLNDNARSSPVVIDAST
notes: as for B1
Consider B3, for which, in [1], the Kd is 159 nM, the koff was 0.000206 s⁻¹ and the kon stood at 1300 M⁻¹ s⁻¹. The binding result in assay [2] is “no binding”.

B4: R2F8 anti-HMGB1 (designed binder)
chain: NVSPPRRARVTDATETTITIRWARSASEIARFQVDAVPANGQTPIQRTIKRSANIYTITGLQPGTDYKIYLYTLNDNARSSPVVIDAST
notes: 14FN3 variant; also called R2F8 HMGB1 FN3
In assay [1], B4 yielded a Kd of 35.3 nM, a koff of 0.000267 s⁻¹ and a kon of 7580 M⁻¹ s⁻¹. In addition, the “IC50 (read off the curve)” value in assay [3] was around 8 µg/mL.

B5: R2G2 anti-HMGB1 (designed binder)
chain: NVSPPRRARVTDATETTITISWRAAESAIARFQVDAVPANGQTPIQRTIKRTKHTYTITGLQPGTDYKIYLYTLNDNARSSPVVIDAST
notes: as for B1
In [1], B5 displayed a Kd of 266 nM, a koff of 0.00049 s⁻¹ and a kon of 1840 M⁻¹ s⁻¹. Also, the binding result in assay [2] is on record as “no binding”.

B6: R2E6 anti-HMGB1 (designed binder)
chain: NVSPPRRARVTDATETTITIRWGVAQSQVARFQVDAVPANGQTPIQRTIKRSVHTYTITGLQPGTDYKIYLYTLNDNARSSPVVIDAST
notes: as for B1
In assay [1], B6 had a Kd of 189 nM, a koff of 0.000955 s⁻¹ and a kon of 5040 M⁻¹ s⁻¹. Moreover, in [2], the binding result is reported as “no binding”.

B7: P2C6 anti-HMGB1 (designed binder)
chain: NVSPPRRARVTDATETTITIRWGVAPSQVIRFQVDAVPANGQTPIQRTIKRSVHAYTITGLQPGTDYKIYLYTLNDNARSSPVVIDAST
notes: as for B1
In assay [1], B7 returned a Kd of 104 nM, a koff of 0.000991 s⁻¹ and a kon of 9540 M⁻¹ s⁻¹.

B8: R2B5 anti-HMGB1 (designed binder)
chain: NVSPPRRARVTDATETTITIRWTVAESKIARFQVDAVPANGQTPIQRTIKRSKHSYTITGLQPGTDYKIYLYTLNDNARSSPVVIDAST
notes: as for B1
In assay [1], B8 showed a Kd of 65.8 nM, a koff of 0.000287 s⁻¹ and a kon of 4350 M⁻¹ s⁻¹.

B9: TNF-α binder A4A9 (designed binder)
chain: NVSPPRRARVTDATETTITISWYPYYDDCGYYISYFQVDAVPANGQTPIQRTIPDSYSSYTITGLQPGTDYKIYLYTLNDADDGHPYSKPVVIDAST
As to B9, the results for the binding result in assay [4] and in [5] were “binds” and “no binding”, respectively.

B10: TNF-α binder R4C5 (designed binder)
chain: NVSPPRRARVTDATETTITISWNSSYCHFYGFQVDAVPANGQTPIQRTISDYEYSYTITGLQPGTDYKIYLYTLNASCYGYHYYKPVVIDAST
notes: 14FN3 variant; on phage in phage ELISA, soluble 6xHis-tagged in ELISA; The short label C5 is tied to R4C5 by its name only
With B10, the binding result in assay [6] is “no binding”.

B11: R1G1 anti-VEGF (designed binder)
chain: NVSPPRRARVTDATETTITIRWAGSPGPVDSFQVDAVPANGQTPIQRTIQTSETGYTITGLQPGTDYKIYLYTLNDNARSSPVVIDAST
With B11, the binding result in assay [7] was “no binding”.

B12: TNF-α binder R42C10 (designed binder)
chain: NVSPPRRARVTDATETTITISWYHHEDDCYYHFYYFQVDAVPANGQTPIQRTILHGTYTSYTITGLQPGTDYKIYLYTLNASGFCSHSYKPVVIDAST
notes: 14FN3 variant; on phage in phage ELISA, soluble 6xHis-tagged in ELISA; The short label C10 is tied to R42C10 by its name only
With B12, the binding result in assay [6] is listed as “no binding”.

B13: R1 D4 anti-VEGF (designed binder)
chain: NVSPPRRARVTDATETTITIPWEVAGGPIISFQVDAVPANGQTPIQRTITPDATGYTITGLQPGTDYKIYLYTLNDNARSSPVVIDAST
notes: 14FN3 variant; on phage in phage ELISA, soluble His-tagged protein in Octet
In the case of B13, the binding result in [7] is listed as “no binding”. In assay [8], this molecule showed a koff of 0.00017 s⁻¹.

B14: R1 F1 anti-VEGF (designed binder)
chain: NVSPPRRARVTDATETTITIPWALAGGPIISFQVDAVPANGQTPIQRTITPDIRGYTITGLQPGTDYKIYLYTLNDNARSSPVVIDAST
Take B14: the binding result in assay [7] was “no binding”.

B15: TNF-α binder R3A10 (designed binder)
chain: NVSPPRRARVTDATETTITISWYPYYYYCGYHYSYFQVDAVPANGQTPIQRTIYGYYTYYTITGLQPGTDYKIYLYTLNSSDYCYYSYYPVVIDAST
Consider B15, for which the binding result in assay [9] is recorded as “no binding”; in assay [10], “binds”.

B16: TNF-α binder R41A6 (designed binder)
chain: NVSPPRRARVTDATETTITISWEHSEDDCYSYIYYFQVDAVPANGQTPIQRTISGYETYYTITGLQPGTDYKIYLYTLNSAGFCPPYSKPVVIDAST
notes: 14FN3 variant; On phage (p3 fusion) in phage ELISA; soluble with 6xHis tag (phagemid also c-myc tag; pET-20b C-terminal hexahistidine) in ELISA and Octet
B16: the binding result in assay [6] is given as “no binding”. The Kd in [11] was at least 20 nM; in assay [12], at most 100 nM.

B17: A6+Fc (Fc fusion)
chain: NVSPPRRARVTDATETTITISWEHSEDDCYSYIYYFQVDAVPANGQTPIQRTISGYETYYTITGLQPGTDYKIYLYTLNSAGFCPPYSKPVVIDAST
notes: Expressed in E. coli BL-21(DE3); also called R41A6 Fc fusion protein; pET-20b+TNF A6+Fc #39; not shown: C-terminal hexahistidine tag of pET-20b
B17: in assay [13], the Kd lay in the range of 12 to 25 nM and the “fold improvement of Koff against monomeric A6” value was found to be 2 fold.

B18: TNF-α binder R4A8 (designed binder)
chain: NVSPPRRARVTDATETTITISWYPSEDYCGSSIYGFQVDAVPANGQTPIQRTIHGNETSYTITGLQPGTDYKIYLYTLNSAGFCPPYSKPVVIDAST
For the molecule B18, the binding result in assay [4] is “binds”; in assay [5] it was “no binding”.

B19: TNF-α binder R4G4 (designed binder)
chain: NVSPPRRARVTDATETTITISWEPSEYDCYYSIYYFQVDAVPANGQTPIQRTIHDSYNYYTITGLQPGTDYKIYLYTLNSAGFCPPYSKPVVIDAST
Take B19: the values for the binding result in assay [4] and in [5] were “binds” and “no binding”, respectively.

B20: TNF-α binder R4E9 (designed binder)
chain: NVSPPRRARVTDATETTITISWESYYYDCCYYIYYFQVDAVPANGQTPIQRTIYYPYTSYTITGLQPGTDYKIYLYTLNSYGYGYHYYKPVVIDAST
Turning to B20, the figures for the binding result in assay [4] and in assay [5] were “binds” and “no binding”, respectively.

B21: TNF-α binder R4F7 (designed binder)
chain: NVSPPRRARVTDATETTITISWYPYEYDDCYYYIYYFQVDAVPANGQTPIQRTIPDYESYYTITGLQPGTDYKIYLYTLNSYGFCPPSYKPVVIDAST
Turning to B21, the binding result in assay [4] is given as “binds”; in assay [5] it was “no binding”.
